# Data as given in US11571480B2, “Multi-ligand drug conjugates and uses thereof” (priority 2015, dated 2023).
# Tests used:
# [1] = tested on: ovarian cancer cell SKOV3; experiment: Cytotoxicity test of conjugate LDC11B; type: cell-based, human; details: SKOV3, incubated 15-30 min, then 2-3 days
# Experimental: (§1) Culture medium: RPMI 1640 Medium, no folic acid
# (§2) 1) human lung cancer cell H460, ovarian cancer cell SKOV3, human embryonic kidney cell 293A were incubated at 37° C., 5% CO2 in RPMI 1640 medium containing 10% fetal bovine serum, the cells were passaged every 2-3 days.
# (§3) 2) human lung cancer cell H460, ovarian cancer cell SKOV3, human embryonic kidney cell 293A were plated at 1×10^3 cells per well (96-well plate) and incubated for 8-12 h at 37° C., 5% CO2.
# (§4) 3) Stock solutions of LDC conjugates or control were prepared in PBS solution. 100 μL/well of serially diluted LDC conjugates or control was added to the cells in the plate and incubated for 15-30 min at 37° C., 5% CO2. The culture medium in the wells was then removed by aspiration and the cells were incubated in fresh culture medium without conjugates (150 μL/well) for 2-3 days at 37° C., 5% CO2.
# (§5) 4) CellTiter 96® Aqueous One Solution Cell Proliferation Assay (Promega) was added to each well to measure the amount of […] cells, and the plate was incubated in an incubator for 1 h at 37° C., 5% CO2.
# (§6) 5) The plate was read at 490 nm on a microplate reader, and the cell survivals were compared for cells with or without the treatment of LDC conjugates. The LDC drug concentrations that are required for 50% cell death (IC50 values) were determined.
# [2] = tested on: human lung cancer cell H460; experiment: Cytotoxicity test of conjugate LDC11B; type: cell-based; details: H460, incubated 15-30 min, then 2-3 days
# Experimental: as §1, §2, §3, §4, §5, §6
# [3] = Cytotoxicity test of conjugate LDC11B; type: cell-based, human; details: human, 293A embryonic kidney cells, incubated 15-30 min, then 2-3 days
# Experimental: as §1, §2, §3, §4, §5, §6
# Transplanted H460 tumor = experiment: Inhibitory assay of conjugates LDC11A, LDC11B against xenograf tumors; type: in vivo, nude mice; details: H460 tumor, 10 mg/kg
# Experimental: Animal: nude mice, aged 6-8 weeks, female
# 1) human large cell lung cancer cell H460, ovarian cancer cell SKOV3, breast cancer cell line HCC1954, and human breast cancer cell SK-BR-3 were incubated at 37° C., 5% CO2 in IMDM medium containing 10% fetal bovine serum, the cells were passaged every 2-3 days.
# 2) generation of tumors: 7×10^6 tumor cells were subcutaneously injected into the back of nude mice, and the mice were grouped for treatment after the tumor sizes were as large as about 100˜200 mm^3.
# 3) treatment: 3 mice/group, treated with LDC11A, LDC11B, as well as controls MMAE and PBS with doses of 5 and 10 mg/kg every 5 days, three injections.
# 4) the physical performance, body weights and tumor sizes of the animals were monitored. The number of animal death was recorded during the experiment.
structure (smiles),measurement,setting,value
"CC[C@H](C)[C@@H]([C@@H](CC(=O)N1CCC[C@H]1[C@H](OC)[C@@H](C)C(=O)N[C@H](C)[C@@H](O)c1ccccc1)OC)N(C)C(=O)[C@@H](NC(=O)[C@H](C(C)C)N(C)C(=O)OCc1ccc(NC(=O)[C@H](CCCNC(N)=O)NC(=O)[C@@H](NC(=O)CCCCCN2C(=O)CC(SC[C@H](NC(=O)CNC(=O)[C@@H]3CCCN3C(=O)[C@H](CCCNC(=N)N)NC(=O)[C@H](CC(C)C)NC(=O)CNC(=O)[C@H](Cc3ccc(O)cc3)NC(=O)[C@H](CO)NC(=O)[C@H](Cc3c[nH]c4ccccc34)NC(=O)[C@H](Cc3c[nH]cn3)NC(=O)[C@@H](N)CCC(=O)O)C(=O)O)C2=O)C(C)C)cc1)C(C)C (stereo partly drawn) [LDC11A, P11-MC-Val-Cit-PAB-MMAE, reference compound]",IC50,[1],341 nM
same,IC50,[2],667 nM
same,IC50,[3],1310 nM
same,animal death / toxicity (in words),Transplanted H460 tumor,dead after the first injection
same,Body weight of mice,Transplanted H460 tumor; Before Injection,24.46 g
same,Body weight of mice,Transplanted H460 tumor; Five days after Injection 1,Death
same,Body weight of mice,Transplanted H460 tumor; Three days after Injection 1,18.25 g
